Like-named read-outs stand apart in the source and are kept apart here.
B1: murine anti-CLDN18.2 monoclonal antibody secreted by the hybridoma 7D10-1 (antibody, V domains shown)
VH: QVQLKESGGNLVQPGGSRKLSCAASGFSFSSFGMHWVRQAPEKGLEWVAYISSGSRTIYYADTVKGRFTISRDNAKNTLFLQMTSLRSEDTAMYYCTRYYYGNSFDYWGQGTTLTVSS
VL: DIVMTQAPSSLTVTTGEKVTLACKSSQSLFNTGNQKNYLTWYQQKPGQPPKLLIYWASTRESGVPDRFTGSGSGTAFTLTISSVQAEDLAVYYCQNNYNFPLTFGAGTKLELK
notes: Murine hybridoma antibody detected with PE anti-mouse IgG Fc; also called murine anti-CLDN18.2 antibody
B2: 7D10-1 chimeric antibody (antibody, human IgG1, kappa, L234A L235A, V domains shown)
VH: B1 VH
VL: DIVMTQAPSSLTVTTGEKVTLACKSSQSLFNTGNQKNYLTWYQQKPGQPPKLLIYWASTRESGVPDRFTGSGSGTAFTLTISSVQAEDLAVYYCQNNYNFPLTFGAGTKLELKR
notes: Murine variable regions with a human constant region; also called anti-CLDN18.2 chimeric antibody
B3: 7D10-1 humanized antibody (antibody, V domains shown)
VH: QVQLVESGGGLVKPGGSLRLSCAASGFSFSSFGMHWVRQAPGKGLEWVAYISSGSRTIYYADTVKGRFTISRDNAKNSLYLQMNSLRAEDTAVYYCTRYYYGNSFDYWGQGTTVTVSS
VL: DIQMTQSPSSLSASVGDRVTITCKSSQSLFNTGNQKNYLTWYQQKPGKAPKLLIYWASTRESGVPSRFSGSGSGTDFTLTISSLQPEDFATYYCQNNYNFPLTFGQGTRLEIK
notes: Cloned into the same pQKX1/pQKX2 vectors as the chimeric antibody and detected with PE anti-human IgG Fc; a human IgG1 isotype control was used in the ADCC assay; also called anti-CLDN18.2 humanized antibody

How the values were obtained:
[1] = target: T1, Human CLDN18.2, NP_001002026.1, claudin-18 isoform 2 [Homo sapiens] (human); assay: flow cytometry titration on 293T-18.2 cells
Method: Each well was washed twice with 400 μl FACS buffer. The secondary antibody of PE anti-mouse IgG Fc was added, and incubated for 1 hour before detection by flow cytometry.

[2] = target: T1, Human CLDN18.2, NP_001002026.1, …; assay: flow cytometry on 293T-18.2 cells
[3] = target: T1, Human CLDN18.2, NP_001002026.1, …; assay: flow cytometry titration on 293T-18.2 cells; remark: listed apart in the source
Method: (§1) 10 μL of each diluted antibody was added to 100 μL of the above cell samples, mixed and incubated at room temperature for 1 hour.
Each well was washed twice with 400 μl FACS buffer. The secondary antibody of the PE anti-human IgG Fc (Biolegend, Cat409304) was added and incubated for 1 hour before detection by flow cytometry.

[4] = target: T1, Human CLDN18.2, NP_001002026.1, …; assay: flow cytometry titration on 293T-18.2 cells; remark: listed apart in the source
Method: as §1
Each well was washed twice with 400 μl FACS buffer. The secondary antibody of the PE anti-human IgG Fc was added and incubated for 1 hour before detection by flow cytometry.

[5] = target: T1, Human CLDN18.2, NP_001002026.1, …; assay: cell-based or functional assay

T1 sequence (chain, as listed by the source limits assumed): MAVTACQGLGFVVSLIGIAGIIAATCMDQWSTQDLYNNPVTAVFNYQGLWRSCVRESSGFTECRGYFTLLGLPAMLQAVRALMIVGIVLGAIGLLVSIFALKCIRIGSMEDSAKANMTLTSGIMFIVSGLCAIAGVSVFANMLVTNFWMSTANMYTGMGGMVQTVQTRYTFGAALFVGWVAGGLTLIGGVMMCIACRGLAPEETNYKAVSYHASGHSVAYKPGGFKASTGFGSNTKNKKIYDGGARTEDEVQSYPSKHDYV

Row | Binder | EC50 [1] [µg/mL] | EC50 strength as a multiple of control antibody MAb362 [2] [fold] | EC50 [3] [µg/mL] | EC50 [4] [µg/mL] | EC50 of ADCC [5] [nM]
1 | B1 | 0.385 | ~3 |  |  | 
2 | B2 |  | ~10 | 0.4 |  | 
3 | B3 |  | ~4 |  | 0.909 | 180

Source: patent publication US20250346665A1 (BEIJING IMMUNOAH PHARMATECH, published 2025)
